{
  "source": "patent US20130345401",
  "tested_on": "T1, human fibrinogen produced in a silkworm (recombinant fibrinogen extracted from cocoons of β42-3×α/γ106-2×IM transgenic silkworms)",
  "T1 sequence 1": "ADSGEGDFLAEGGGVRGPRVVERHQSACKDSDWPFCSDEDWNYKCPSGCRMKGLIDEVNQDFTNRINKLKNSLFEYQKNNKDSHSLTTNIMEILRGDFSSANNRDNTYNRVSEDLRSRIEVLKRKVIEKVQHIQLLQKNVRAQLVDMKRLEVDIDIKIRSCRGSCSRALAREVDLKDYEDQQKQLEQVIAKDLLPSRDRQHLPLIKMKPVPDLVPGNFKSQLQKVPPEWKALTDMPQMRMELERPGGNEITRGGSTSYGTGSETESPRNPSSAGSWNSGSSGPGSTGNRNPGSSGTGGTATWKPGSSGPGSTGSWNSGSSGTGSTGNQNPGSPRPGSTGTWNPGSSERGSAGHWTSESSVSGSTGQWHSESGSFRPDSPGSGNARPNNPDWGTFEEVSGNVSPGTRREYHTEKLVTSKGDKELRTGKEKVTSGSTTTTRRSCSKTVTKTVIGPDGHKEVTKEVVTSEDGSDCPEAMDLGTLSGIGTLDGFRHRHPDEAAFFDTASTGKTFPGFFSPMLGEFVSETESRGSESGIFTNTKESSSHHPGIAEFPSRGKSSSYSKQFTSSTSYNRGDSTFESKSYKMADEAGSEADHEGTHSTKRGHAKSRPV",
  "T1 sequence 2": "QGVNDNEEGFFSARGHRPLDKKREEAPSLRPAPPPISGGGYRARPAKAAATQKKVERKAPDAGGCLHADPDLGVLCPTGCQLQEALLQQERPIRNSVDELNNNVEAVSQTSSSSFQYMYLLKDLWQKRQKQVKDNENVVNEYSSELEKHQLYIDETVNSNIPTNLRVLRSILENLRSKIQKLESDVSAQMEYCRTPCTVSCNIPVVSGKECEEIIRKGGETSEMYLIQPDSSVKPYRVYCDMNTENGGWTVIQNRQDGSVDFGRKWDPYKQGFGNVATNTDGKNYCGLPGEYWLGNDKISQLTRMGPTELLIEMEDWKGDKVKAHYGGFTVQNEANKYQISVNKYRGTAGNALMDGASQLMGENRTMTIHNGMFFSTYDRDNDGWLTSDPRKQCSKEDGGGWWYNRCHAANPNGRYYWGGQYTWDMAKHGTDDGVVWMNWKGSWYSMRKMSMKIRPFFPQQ",
  "T1 sequence 3": "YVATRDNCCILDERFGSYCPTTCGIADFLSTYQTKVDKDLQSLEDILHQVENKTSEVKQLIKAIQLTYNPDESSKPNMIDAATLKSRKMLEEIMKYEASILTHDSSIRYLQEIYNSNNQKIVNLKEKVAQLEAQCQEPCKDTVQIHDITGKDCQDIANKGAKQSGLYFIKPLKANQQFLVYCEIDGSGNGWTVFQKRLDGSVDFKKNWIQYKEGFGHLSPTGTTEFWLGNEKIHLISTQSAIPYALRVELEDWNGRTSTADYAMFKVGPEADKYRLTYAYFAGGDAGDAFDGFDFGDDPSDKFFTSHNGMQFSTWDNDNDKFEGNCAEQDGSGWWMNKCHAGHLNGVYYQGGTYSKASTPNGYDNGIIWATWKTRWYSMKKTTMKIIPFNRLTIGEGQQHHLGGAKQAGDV",
  "data": [
    {"substance": "thrombin (Calbiochem)", "values": [
      {"measurement": "coagulation (fibrin clot formation): viscosity of the liquid after incubation with 10 U/ml thrombin at 37° C. for 1 hour", "value": "viscosity of the liquid increased to an extent where, when the liquid was sucked into a pipette, the liquid hardly dropped from the tip of the pipette"}
    ]}
  ]
}
